Tests used:
Details in all cases: both partners purified
GST-CagA-2CM^W = GST-CagA-2CM^W (Helicobacter pylori strain 26695, UniProt P55980 1-1186); experiment: pull-down; quantitative GST pull-down: GST-CagA on beads in a range of concentrations, fixed low concentration of PAR1b (39–364)-FLAG, GST-binding buffer with 0.01% Triton-X, 20 min at 4 °C, unbound PAR1b in the supernatant quantified, binding to GST control subtracted; apparent KD
GST-CagA-4CM^W = GST-CagA-4CM^W (Helicobacter pylori strain NCTC11637); experiment: as above
CagA-2CM^W = target: T1, CagA-2CM^W (Helicobacter pylori strain 26695, UniProt P55980 1-1186); experiment: SEC; Superdex 200 10/300 GL, HBS-P running buffer, 4 °C, 0.5 ml/min; CagA constructs alone or mixed with PAR1b (39–364) at a molar ratio of 1:1 or 1:2; fractions on SDS-PAGE, CBB bands quantified
T1 construct: also called canonical Western ABC type CagA
T1 sequence (looked up): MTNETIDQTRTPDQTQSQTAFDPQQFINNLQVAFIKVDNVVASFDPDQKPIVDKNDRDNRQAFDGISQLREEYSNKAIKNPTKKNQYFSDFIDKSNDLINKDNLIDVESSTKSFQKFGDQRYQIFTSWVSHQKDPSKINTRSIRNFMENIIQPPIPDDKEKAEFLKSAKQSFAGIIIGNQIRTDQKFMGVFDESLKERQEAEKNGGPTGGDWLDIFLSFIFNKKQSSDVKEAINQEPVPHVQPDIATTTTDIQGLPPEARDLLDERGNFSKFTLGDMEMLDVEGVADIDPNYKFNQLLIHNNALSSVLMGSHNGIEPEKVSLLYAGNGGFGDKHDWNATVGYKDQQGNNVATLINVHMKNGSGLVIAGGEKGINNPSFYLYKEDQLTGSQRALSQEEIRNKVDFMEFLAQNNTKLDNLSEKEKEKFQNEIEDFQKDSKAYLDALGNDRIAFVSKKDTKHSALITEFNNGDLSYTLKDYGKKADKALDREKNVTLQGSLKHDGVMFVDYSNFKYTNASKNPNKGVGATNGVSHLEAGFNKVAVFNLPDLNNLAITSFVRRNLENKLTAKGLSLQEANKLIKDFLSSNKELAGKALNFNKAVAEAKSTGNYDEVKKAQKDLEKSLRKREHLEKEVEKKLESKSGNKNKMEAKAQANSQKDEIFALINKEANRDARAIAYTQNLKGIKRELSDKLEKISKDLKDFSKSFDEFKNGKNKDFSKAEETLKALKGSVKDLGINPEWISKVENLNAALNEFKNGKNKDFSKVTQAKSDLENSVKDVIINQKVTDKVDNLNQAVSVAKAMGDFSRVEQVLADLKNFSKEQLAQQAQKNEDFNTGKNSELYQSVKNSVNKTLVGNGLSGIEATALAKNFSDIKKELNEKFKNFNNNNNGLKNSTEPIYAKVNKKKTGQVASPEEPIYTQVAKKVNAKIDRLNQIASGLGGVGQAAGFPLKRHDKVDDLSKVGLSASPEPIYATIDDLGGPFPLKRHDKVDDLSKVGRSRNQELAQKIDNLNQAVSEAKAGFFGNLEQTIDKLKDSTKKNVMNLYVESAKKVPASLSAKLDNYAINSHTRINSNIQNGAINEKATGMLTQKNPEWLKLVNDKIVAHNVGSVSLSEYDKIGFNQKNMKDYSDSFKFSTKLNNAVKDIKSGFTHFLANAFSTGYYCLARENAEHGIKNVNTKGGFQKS

B1: PAR1b (39–364)-FLAG (domain or fragment)
chain: not shown
modifications: C-terminal FLAG-6xHis tag left out
- Kd (GST-CagA-2CM^W): 26.6 nM

B2: PAR1b (39–364)-FLAG (domain or fragment)
chain: not shown
- Kd (GST-CagA-4CM^W): 2.43 nM

B3: PAR1b (39–364) (domain or fragment)
chain: not shown
modifications: C-terminal 6xHis tag left out
- stoichiometry N (CagA-2CM^W): 2 PAR1b per CagA

From publication PMC4957108, “Impact of structural polymorphism for the Helicobacter pylori CagA oncoprotein on binding to polarity-regulating kinase PAR1b” (Scientific Reports, 2016)
